This is an account of results in patent publication US20250066503A1, “CELL INJURY INDUCING THERAPEUTIC DRUG FOR USE IN CANCER THERAPY” (CHUGAI SEIYAKU KABUSHIKI KAISHA, priority 2016, published 2025).

Positions count from the first letter of the chain named.

Assay [1] has as its target human CD3 (soluble human CD3ε chain) (Homo sapiens, UniProt P07766). As to the kind of experiment: Affinity for human CD3 by surface plasmon resonance (Biacore T200). The assay is classed as binding. Conditions: for Kd: soluble human CD3ε chain, Table 12. As to the method:
(§1) The activity to bind human CD3 when using hCE115HA (SEQ ID NO: 52) as the H chain variable region and L0000 (SEQ ID NO: 53) as the L-chain variable region was evaluated. This was performed using the molecular form of a single-arm antibody having a single Fab at the Fc region of a human IgG1 heterodimerized by the knobs-into-hole technique.
(§2) The affinity and binding rate constants of an anti-CD3 antibody for an antigen were measured by the single-cycle kinetics method of a surface plasmon resonance assay using Biacore™-T200 (GE Healthcare Japan). HBS-EP+(GE Healthcare Japan) was used for the running buffer, and an amine coupling kit (GE Healthcare Japan) was used to covalently bind human CD3 to the CM4 chip (carboxymethyl dextran-coated chip). The anti-CD3 antibody used as the analyte was prepared at 5 and […] using HBS-EP+. Measurements were carried out by first injecting each of the 5- and 20-g/mL anti-CD3 antibody solutions for three minutes continuously at a flow rate of 20 L/min to allow reaction to take place. Then, the solution was switched to HBS-EP+ and the dissociation phase was measured for 3 minutes. After completion of the dissociation phase measurement, the sensor chip was regenerated by washing with 10 mM Gly-HCl at pH 1.5. Measurement at the concentration of 0 was carried out by performing each of the three-minute HBS-EP+ injections twice successively to allow reaction to take place, and then switching to HBS-EP+ to measure the dissociation phase for 3 minutes. After completion of the dissociation phase measurement, the sensor chip was regenerated by washing with 10 mM Gly-HCl at pH 1.5. A data analysis software exclusively for Biacore, Biacore T200 Evaluation Software Version 1.0, was used to perform kinetic analyses to calculate the binding rate constant (ka), dissociation rate constant (kd), and the rate constant ratio from the obtained sensorgrams.
CDR and FR were determined according to the Kabat definition (Kabat numbering).
First, point mutations were introduced into FR1, FR2, FR3, CDR1, CDR2, and CDR3 of the humanized anti-human CD3ε chain antibody sequence produced in Reference Example 2, hCE115HA-ERY27_HE (SEQ ID NO: 55), to prepare modified antibodies. Next, the affinity of these modified antibodies for the soluble human CD3ε chain was determined.
In general terms: In SPR one partner is held on a chip, and binding of the other changes the refractive index at the surface.

In assay [2] the target is T1, soluble human CD3 epsilon chain (human, UniProt P07766 23-126).
T1 construct: also called CD3ε
Kind of assay: SPR, human CD3 on the chip. How it is done:
as §1, §2

In assay [3] the test system is SK-HEP-1/hGPC3 (SK-pca31a) xenograft tumor. As to the kind of experiment: In vivo drug efficacy, NOD scid/T cell-injected model, SK-pca31a. More on the design: species or system NOD scid mice. The following applies: 5 mg/kg once through the tail vein, compared to the vehicle-administered group. As to the method:
Methods called an NOD scid/T cell-injected model, a humanized NOG mouse model, and a human CD3εδγ gene-modified mouse model were used in the in vivo drug efficacy evaluation. Assay using an NOD scid/T cell-injected model was performed as follows. […] T cells expanded by culturing human PBMCs in vitro were injected into the NOD scid mice with confirmed tumor establishment. The mice were treated by administering bispecific antibody-38 and bispecific antibody-30, -31, -32, or -33. Assay using a humanized NOG mouse model was performed as follows. CD34-positive hematopoietic stem cells derived from umbilical cord blood were transplanted into NOG mice by tail vein injection. Human T cells are constantly supplied in the mice, which are called humanized NOG mice. The PC-10 cell line was transplanted into humanized NOG mice. The humanized NOG mice with confirmed establishment of PC-10 tumor were treated by administering antibody-38. Assay using a human CD3εδγ gene-modified mouse model was performed as follows. Cells of mouse-derived cell line forced to express human GPC3 were transplanted into a human CD3εδγ gene-modified mouse model, which had been prepared according to Reference Example 10. The human CD3εδγ gene-modified mice with confirmed tumor establishment were treated by administering antibody-38.
The drug efficacy evaluation studies for bispecific antibody-38, and bispecific antibody-30, -31, -32, and -33 in NOD scid/T cell-injected model were performed as follows. T cell expansion culture was performed using PBMCs separated from blood collected from a healthy person and T cell activation/expansion kit/human. Each of human cancer cell lines (MKN74, FU-97, SNU-1, SCC152, KYSE70, PC-10, HuH-7, TOV-21G, RMG-1, and SK-pca31a (SK-HEP-1/hGPC3)) was mixed with Matrigel™ Basement Membrane Matrix, and transplanted subcutaneously into NOD scid mice (CLEA Japan). An in vivo-passaged line (STM-03) was transplanted as about 2-mm tumor tissue cubes subcutaneously into NOD scid mice (CLEA Japan). The day of transplantation was defined as Day 0. On the day before transplantation, anti-asialo GM1 antibody (Wako Pure Chemical Industries) was administered intraperitoneally at 0.2 mg/mouse. When tumor was clearly established after transplantation, the mice were separated into groups based on tumor size and body weight. Then, anti-asialo GM1 antibody was administered intraperitoneally at 0.2 mg/mouse again. On the following day, T cells obtained by the aforementioned expansion culture were transplanted intraperitoneally at 1.5×10^7 to 3×10^7 cells/mouse. About two to five hours after T cell transplantation, antibody-38 was administered at 1 mg/kg (MKN74, FU-97, SNU-1, SCC152, KYSE70, PC-10, HuH-7, TOV-21G, RMG-1, and STM-03) through the tail vein. The administration was performed only once. […]

The mark [4] stands for this setting: single-arm antibody, single-cycle kinetics.

T1 sequence (P07766 23-126 limits assumed): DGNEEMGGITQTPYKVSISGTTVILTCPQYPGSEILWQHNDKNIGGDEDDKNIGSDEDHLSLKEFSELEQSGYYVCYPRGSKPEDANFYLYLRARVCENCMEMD
human CD3 (soluble human CD3ε chain), sequence (P07766 23-126 limits assumed): as above

B1: rCE115H/rCE115L single-arm antibody (antibody, human IgG1, V domains shown)
VH: EVQLVETGGSLVQPGKSLKLTCATSGFTFSNAWMHWVRQSPEKQLEWVAQIKAKSNNYATYYAESVKGRFTISRDDSKSNIYLQMNSLKEEDTAVYYCRYVHYGAYYGVDAWGQGTSVTVSS
VL: DVVMTQTPVSMSVSLGGQVSISCRSSQSLVHNNGNTYVSWYIQKPSQSPQLLIYKVSNRFSGISDRFSGSGSGTDFTLKISRVEPDDLGVYYCGQGTQDPYTFGAGTKLELK
notes: single Fab on human IgG1 Fc heterodimerized by knobs-into-hole; also called rCE116H/rCE115L
B1: in assay [1] (setting [4]), the “Affinity for human CD3 ka” value worked out at 59000 M⁻¹ s⁻¹ and the “Affinity for human CD3 kd” value came out at 0.006 s⁻¹. In assay [2], this molecule had a Kd of 100 nM, a koff of 0.006 s⁻¹ and a kon of 59000 M⁻¹ s⁻¹.

B2: antibody-30: optimized anti-human CD3ε chain and anti-human GPC3 bispecific antibody (antibody)
heavy 1: QVQLVESGGGLVQPGRSLRLSCAASGFTFSNAWMHWVRQAPGKGLEWVAQIKDKSQNYATYYAESVKGRFTISRDDSKNSLYLQMNSLKTEDTAVYYCRYVHYAAGYGVDAWGQGTTVTVSSASTKGPSVFPLAPCSRSTSESTAALGCLVKDYFPEPVTVSWNSGALTSGVHTFPAVLQSSGLYSLSSVVTVPSSSLGTKTYTCNVDHKPSNTKVDKRVESKYGPPCPPCPAPEFRGGPKVFLFPPKPKDTLMISRTPEVTCVVVDVSQEDPEVQFNWYVDGVEVHNAKTKPREEQFASTYRVVSVLTVLHQDWLNGKEYKCKVSNKGLPSSIEKTISKAKGQPREPQVYTLPPSQKEMTKNQVSLTCLVKGFYPSDIAVEWESNGQPENNYKTTPPVLDSDGSFFLYSKLTVDKSRWQEGNVFSCSVMHEALHNRYTQKSLSLSP
heavy 2: QVQLVQSGAEVKKPGASVTVSCKASGYTFTDYEMHWVRQAPGEGLEWMGAIDGETPDTAYSEKFKGRVTLTADKSTSTAYMELSSLTSEDTAVYYCTRFYSYTYWGQGTLVTVSSASTKGPSVFPLAPCSRSTSESTAALGCLVKDYFPEPVTVSWNSGALTSGVHTFPAVLQSSGLYSLSSVVTVPSSSLGTQTYTCNVDHKPSNTKVDKRVESKYGPPCPPCPAPEFRGGPKVFLFPPKPKDTLMISRTPEVTCVVVDVSQEDPEVQFNWYVDGVEVHNAKTKPREEQFASTYRVVSVLTVLHQDWLNGKEYKCKVSNKGLPSSIEKTISKAKGQPREPQVYTLPPSQEEMTKNQVSLTCLVKGFYPSDIAVEWESNGQPENNYKTTPPVLDSDGSFFLYSKLTVDKSRWQEGNVFSCSVMHEALHNHYTQESLSLSP
light: DIVMTQSPLSLPVTPGEPASISCRSSQPLVHSNRNTYLHWYQQKPGQAPRLLIYKVSNRFSGVPDRFSGSGSGTDFTLKISRVEAEDVGVYYCGQGTQVPYTFGQGTKLEIKRTVAAPSVFIFPPSDEQLKSGTASVVCLLNNFYPREAKVQWKVDNALQSGNSQESVTEQDSKDSTYSLSSTLTLSKADYEKHKVYACEVTHQGLSSPVTKSFNRGEC
For the molecule B2, the anti-tumor effect result in assay [3] is listed as “evident anti-tumor effect”.

B3: antibody-31: optimized anti-human CD3ε chain and anti-human GPC3 bispecific antibody (antibody)
heavy 1: B2 heavy 1 with L11V, R16G, D75A, L81I, A111I
heavy 2: B2 heavy 2
light: B2 light
For the molecule B3, in assay [3], the anti-tumor effect entry is “evident anti-tumor effect”.

B4: antibody-6: anti-human CD3ε chain and anti-human GPC3 bispecific antibody (antibody)
heavy: QVQLVESGGGVVQPGRSLRLSCAASGFTFSNAWMHWVRQAPGKGLEWVANIKAKSNNYATYYAESVKGRFTISRDDSKNSLYLQMNSLKTEDTAVYYCRYVHYGAYYGVDAWGQGTTVTVSSASTKGPSVFPLAPSSKSTSGGTAALGCLVKDYFPEPVTVSWNSGALTSGVHTFPAVLQSSGLYSLSSVVTVPSSSLGTQTYICNVNHKPSNTKVDKKVEPKSCDKTHTCPPCPAPEAAGGPSVFLFPPKPKDTLMISRTPEVTCVVVDVSHEDPEVKFNWYVDGVEVHNAKTKPREEQYASTYRVVSVLTVLHQDWLNGKEYKCKVSNKALPAPIEKTISKAKGQPREPQVYTLPPSRCELTKNQVSLSCAVKGFYPSDIAVEWESNGQPENNYKTTPPVLDSDGSFFLVSKLTVDKSRWQQGNVFSCSVMHEALHNHYTQKSLSLSPDYKDDDDK
light: B2 light with P28S
chain 1: DIVMTQSPLSLPVTPGEPASISCRSSQSLVHSNRNTYLHWYQQKPGQAPRLLIYKVSNRFSGVPDRFSGSGSGTDFTLKISRVEAEDVGVYYCSQNTHVPPTFGQGTKLEIKSSASTKGPSVFPLAPSSKSTSGGTAALGCLVKDYFPEPVTVSWNSGALTSGVHTFPAVLQSSGLYSLSSVVTVPSSSLGTQTYICNVNHKPSNTKVDKKVEPKSCDKTHTCPPCPAPEAAGGPSVFLFPPKPKDTLMISRTPEVTCVVVDVSHEDPEVKFNWYVDGVEVHNAKTKPREEQYASTYRVVSVLTVLHQDWLNGKEYKCKVSNKALPAPIEKTISKAKGQPREPQVCTLPPSRDELTKNQVSLWCLVKGFYPSDIAVEWESNGQPENNYKTTPPVLDSDGSFFLYSKLTVDKSRWQQGNVFSCSVMHEALHNHYTQKSLSLSPHHHHHHHH
chain 2: QVQLVQSGAEVKKPGASVKVSCKASGYTFTDYEMHWIRQPPGQGLEWIGAIDPKTGDTAYSQKFKGRVTLTADKSTSTAYMELSSLTSEDTAVYYCTRFYSYTYWGQGTLVTVSSASVAAPSVFIFPPSDEQLKSGTASVVCLLNNFYPREAKVQWKVDNALQSGNSQESVTEQDSKDSTYSLSSTLTLSKADYEKHKVYACEVTHQGLSSPVTKSFNRGEC
On to B4, for which, in assay [1], the Kd is 16.9 nM.

B5: antibody-32: optimized anti-human CD3ε chain and anti-human GPC3 bispecific antibody (antibody)
heavy 1: B2 heavy 1 with L11V, R16G, D75A, L81I, A111I
heavy 2: B2 heavy 2 with V37I, A40P, M48I, E54P
light: B2 light
As for B5, the anti-tumor effect result in assay [3] is reported as “evident anti-tumor effect”.

B6: antibody-33: optimized anti-human CD3ε chain and anti-human GPC3 bispecific antibody (antibody)
heavy 1: B2 heavy 1
heavy 2: B2 heavy 2 with V37I, A40P, M48I, E54P
light: B2 light
As to B6, the anti-tumor effect entry in assay [3] is listed as “evident anti-tumor effect”.

B7: CE115HA122-E22Hh//-Hi-Kn010G3/L0000-k0: modified anti-CD3 antibody (antibody)
heavy: B4 heavy
light: B2 light with P28S
In turn, B7 yielded a Kd in assay [1] of 42.8 nM.

In general, Kd refers to the free concentration of one partner at which half of the binding sites on the other are occupied at equilibrium, for simple one-to-one binding. A lower Kd goes with tighter binding. As usually defined, the koff is the first-order rate constant of dissociation. As a reminder, the kon is the second-order rate constant of association. A higher kon goes with fast association.
